In data set [1] the target is T1, SpPot1p (Pot1, full length) (Schizosaccharomyces pombe, UniProt O13988 O13988:1-555).
T1 sequence: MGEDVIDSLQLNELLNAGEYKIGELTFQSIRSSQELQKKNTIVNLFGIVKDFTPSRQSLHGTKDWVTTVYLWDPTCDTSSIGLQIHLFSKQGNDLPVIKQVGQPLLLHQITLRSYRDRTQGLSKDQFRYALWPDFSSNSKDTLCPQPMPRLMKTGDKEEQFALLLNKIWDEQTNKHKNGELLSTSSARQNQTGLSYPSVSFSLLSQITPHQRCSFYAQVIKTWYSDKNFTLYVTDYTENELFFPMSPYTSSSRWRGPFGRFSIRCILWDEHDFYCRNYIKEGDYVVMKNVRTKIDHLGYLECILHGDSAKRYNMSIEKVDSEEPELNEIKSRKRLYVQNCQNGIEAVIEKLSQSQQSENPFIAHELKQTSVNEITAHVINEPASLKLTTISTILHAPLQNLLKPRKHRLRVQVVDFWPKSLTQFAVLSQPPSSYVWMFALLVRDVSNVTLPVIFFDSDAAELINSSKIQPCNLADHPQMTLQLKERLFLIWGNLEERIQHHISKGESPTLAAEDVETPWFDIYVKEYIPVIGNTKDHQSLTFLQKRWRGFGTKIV
Kind of data set: listed as SpPot1p-binding oligonucleotide. Particulars: tags: N-terminal V5 and His6 tags plus pQE30 N-terminal His6; E. coli M15.

In data set [2] the target is T2, hPot1p (Homo sapiens, UniProt Q9NUX5 Q9NUX5:1-634).
T2 sequence: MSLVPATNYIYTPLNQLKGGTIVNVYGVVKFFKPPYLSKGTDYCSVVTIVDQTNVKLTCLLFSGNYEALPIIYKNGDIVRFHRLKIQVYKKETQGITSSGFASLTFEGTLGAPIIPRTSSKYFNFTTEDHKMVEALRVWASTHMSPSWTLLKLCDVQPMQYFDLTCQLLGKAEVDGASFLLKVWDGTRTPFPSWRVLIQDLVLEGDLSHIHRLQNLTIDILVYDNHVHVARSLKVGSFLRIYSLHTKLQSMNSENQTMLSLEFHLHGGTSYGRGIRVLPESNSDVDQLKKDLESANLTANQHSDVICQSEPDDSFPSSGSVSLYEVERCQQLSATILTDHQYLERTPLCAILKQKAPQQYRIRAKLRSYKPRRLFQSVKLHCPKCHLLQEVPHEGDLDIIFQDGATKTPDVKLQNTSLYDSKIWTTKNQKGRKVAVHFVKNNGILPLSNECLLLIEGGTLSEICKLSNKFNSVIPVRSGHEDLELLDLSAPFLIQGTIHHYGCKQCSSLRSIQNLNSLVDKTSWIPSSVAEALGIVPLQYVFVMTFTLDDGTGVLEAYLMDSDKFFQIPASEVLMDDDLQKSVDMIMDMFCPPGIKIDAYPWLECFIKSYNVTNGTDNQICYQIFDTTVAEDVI
Kind of data set: listed as hPot1p-binding oligonucleotide. The following applies: tags: N-terminal His6 (pQE30); E. coli.

The target in data set [3] is T3, SpPot1p N-terminal 22 kDa fragment (Schizosaccharomyces pombe, UniProt O13988 O13988:1-185).
T3 sequence: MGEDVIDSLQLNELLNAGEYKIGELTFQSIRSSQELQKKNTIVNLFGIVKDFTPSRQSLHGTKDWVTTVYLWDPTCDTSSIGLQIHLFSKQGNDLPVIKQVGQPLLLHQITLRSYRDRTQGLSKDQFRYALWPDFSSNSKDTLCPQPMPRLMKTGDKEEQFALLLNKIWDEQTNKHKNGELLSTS
Kind of data set: EMSA; truncated Pot1p-DNA complex seen in mixture with full-length protein. Particulars: tags: N-terminal V5 and His6 tags; present in mixture with full-length protein; label: 5' 32P. Here is the method: FIG. 3B: Same as FIG. 3A except that the added protein contained truncated Pot1p as well as full length protein. Truncated Pot1p-DNA complex is indicated by a closed arrow.
(§1) C-strand ([…]) and G-strand ([…]) were 5′ ³²P-labeled using T4 polynucleotide kinase and γ-³²P-ATP. Duplex DNA was generated by annealing equimolar amounts of radiolabeled C-strand and unlabelled G-strand. Binding reactions (10 μl) were carried out in 25 mM HEPES (pH 7.5), 1 mM EDTA, 50 mM NaCl, 5% glycerol, and 2.5 μM PBoli109 ([…]) as non-specific competitor. Pot1p (50 ng) was incubated with the indicated DNA substrates (1 ng) for 15 min at 20° C. Complexes were analyzed by electrophoresis at 4° C. through a 4-20% TBE gel (Invitrogen) run at 150 V for 80 min. The Pot1p-DNA complex is indicated by an open arrow in FIG. 3A. […] Truncated Pot1p-DNA complex is indicated by a closed arrow.

Data set [4] has as its target T1, SpPot1p (Pot1, full length). The experiment in a line: EMSA; 25 mM HEPES pH 7.5, 1 mM EDTA, 50 mM NaCl, 5% glycerol, 20 C, PBoli109 competitor. Particulars: tags: N-terminal V5 and His6 tags plus pQE30 N-terminal His6; E. coli M15; label: 5' 32P. How it is done: as §1
The target in data set [5] is T2, hPot1p. The experiment in a line: EMSA; same conditions as SpPot1p. Particulars: tags: N-terminal His6 (pQE30); E. coli; label: 32P.

Here are results for 16 molecules from patent publication US20020137703, “Protection-of-telomere-1 (POT-1) protein and encoding polynucleotides” (published 2002).

Take TGTGGTGTGTGGGTGTGCGGTT (ssDNA) [PBoli86]: in data set [1], the binding result was “binds”.
Regarding CTGTAAGCATATGGTTACTCGAATCTCG (ssDNA) [PBoli187], the binding result in data set [1] was “binds”.
TTAGGGTTAGGGTTAGGGTT (ssDNA) [PBoli177]: in the data set with hPot1p [2], the binding result is recorded as “binds”.
For the molecule GGTTACACGGTTACAGGTTACAGGTTACAGGGTTACGGTTACG (ssDNA) [S. pombe G-strand (PBoli112)], the binding result in data set [3] and in data set [4] was “binds” throughout.
On to CTGTAAGCATATCATCGGTTACGGTTAC (ssDNA) [PBoli185], for which, in data set [1], the binding result is “binds”.
For GGTTACAGGTTACAGGTTAC (ssDNA) [PT1], the binding result in data set [1] is “binds”.
As to GTTACAGGTTACGGTTACGG (ssDNA) [PBoli54], in data set [1], the binding result is “binds”.
GGTTACGGTTACCATCATTCGAATCTCG (ssDNA) [PBoli186]: the binding result in data set [1] is “binds”.
In the case of GGTTACACGGTTACAGGTTACAGGTTACAG (ssDNA) [PBoli110], the binding result in data set [1] is reported as “binds”.
On to CTGTAAGCATATCATCATTCGAGGTTAC (ssDNA) [PBoli183], for which the binding result in data set [1] is “binds”.
The same measure, in the same setting: the result for GGTTACGGTTACAGGTTACA (ssDNA) [PBoli52] reads “binds”; that for GGTTACGCATATCATCATTCGAATCTCG (ssDNA) [PBoli184], “binds”; that for CTGTAAGCGGTTACGGTTACGAATCTCG (ssDNA) [PBoli188], “binds”.
Consider CGGTTACACGGTTACAGGT (ssDNA) [PBoli53], for which, in data set [1], the binding result was “binds”.
Consider GGTTAGGGTTAGGGTTAGGG (ssDNA) [PBoli178], for which the binding result in the data set with hPot1p [2] is recorded as “binds”.
For TTAGGGTTAGGGTTAGGGTTAGGGTTAGGG (ssDNA) [human G-strand (TTAGGG)5 (PBoli179)], the binding result in the data set with hPot1p [5] is listed as “binds”.
